Experimental findings from US8357523B2, “Beta-glucosidase variant enzymes and related polynucleotides” (Codexis, Inc., priority 2009, dated 2013) are described below.

Residue numbers refer to the chain shown, from its start.

To fix the notation:
B1: 197 (protein)
chain: STAIAQEGAAPAAILHPEKWPRPATQRLIDPAVEKRVDALLKQLSVEEKVGQVIQGDIGTITPEDLRKYPLGSILAGGDSGPNGDDRAPPKEWLDLADAFYRVSLEKRPGHTPIPVLFGIDAVHGHGNIGSATIFPHNIALGMTRDPELLRRIGEVTAEEMAATGIDWTFAPALSVVRDDRWGRTYEGFSEDPEIVASYSAAIVEGVQGKFGSKDFMAPGRIVASAKHFLADGGTDQGRDQGDARISEDELIRIHNAGYPPAIDAGVLTVMASFSSWQGIKHHGHKQLLTDVLKGQMGFNGFIVGDWNAHDQVPGCTKFNCPTSLIAGLDMYMAADSWKQLYENTLAQVKDGTIPMARLDDAVRRILRVKVLAGLFEKPAPKDRPGLPGLETLGSPEHRAVGREAVRKSLVLLKNDKGTLPLSPKARVLVAGDGADNIGKQSGGWTISWQGTGNRNDEFPGATSILGGIRDAVADAGGSVEFDVPGQYKTKPDVAIVVFGEEPYAEFQGDVETLEYQPDQKQDLALLKKLKDQGIPVVAVFLSGRPMWVNPELNASDAFVAAWLPGTEGGGVADVLFTDKAGKVQHDFAGKLSYSWPRTAAQTPVNRGDADYNPLFAYGYGLTYKDKSKVGTLPEESGVPAEARQNAGIYFRAGALRLPGRFL
B2: 207 (protein)
chain: B1 chain with P485A
B3: 202 (protein)
chain: B1 chain with P485A, G570P, P604T
B4: 99 (protein)
chain: B1 chain with D79N, N128K, M143A, E159V, S198A, I222S, S225C, P485A, P604T
B5: 83 (protein)
chain: B1 chain with D79N, M143A, E159V, S198A, I222A, S225C, P485A, A525T, P604T
B6: 93 (protein)
chain: B1 chain with D79N, M143A, E159V, S198A, F211Y, P485A, P604T
B7: 86 (protein)
chain: B1 chain with D79N, E159V, P219M, P485A, P604T
B8: 199 (protein)
chain: B1 chain with S213P, G220V, P485A, P604T
B9: 203 (protein)
chain: B1 chain with P604T
B10: 87 (protein)
chain: B1 chain with E159V, F211Y, P485A, P604T
B11: 200 (protein)
chain: B1 chain with P485A, P604T
B12: 209 (protein)
chain: B1 chain with M331L, P604T
B13: 89 (protein)
chain: B1 chain with M143A, E159V, P219V, P485A, P604T
B14: 92 (protein)
chain: B1 chain with D79N, E159V, S198A, P485A, P604T
B15: 98 (protein)
chain: B1 chain with T2A, D79N, M143A, E159V, A162T, S198A, A201P, I222A, P485A, P604T
B16: 88 (protein)
chain: B1 chain with M143A, E159V, S198A, P485A, P604T
B17: 208 (protein)
chain: B1 chain with G59R, P485A, P604T
B18: 85 (protein)
chain: B1 chain with D85N, M143A, E159V, S198A, F211Y, P485A, P604T
B19: 84 (protein)
chain: B1 chain with D79N, N128K, M143A, E159V, S198A, I222A, P485A, P604T
B20: 97 (protein)
chain: B1 chain with D79N, E159V, S198A, F211Y, P485A, P604T, E642A, A643P
B21: 101 (protein)
chain: B1 chain with D79N, M143A, E159V, A162T, S198A, I222A, S225C, P485A, P604T
B22: 205 (protein)
chain: B1 chain with S479A, P485A, P604T
B23: 204 (protein)
chain: B1 chain with Q26R, P485A
B24: 95 (protein)
chain: B1 chain with D79N, M143A, E159Q, F211Y, P485A, P604T
B25: 96 (protein)
chain: B1 chain with D79N, S198A, F211Y, P485A, P604T
B26: 91 (protein)
chain: B1 chain with E159V, S198A, P485A, P604T
B27: 90 (protein)
chain: B1 chain with M143A, E159V, S198A, F211Y, P485A, P604T
B28: 206 (protein)
chain: B1 chain with S213P, P485A, P604T
B29: 198 (protein)
chain: B1 chain with S213P, P604T
B30: 102 (protein)
chain: B1 chain with D79N, M143A, E159V, A162T, S198A, S225C, P485A, A573S, P604T
B31: 201 (protein)
chain: B1 chain with P485A, A539V, P604T
B32: 103 (protein)
chain: STAIAQEGAAPAAILHPEKWPRPATQRLIDPAVEKRVDALLKQLSVEEKVGQVIQGDIGTITPEDLRKYPLGSILAGGNSGPNGDDRAPPKEWLDLADAFYRVSLEKRPGHTPIPVLFGIDAVHGHGNIGSATIFPHNIALGATRDPELLRRIGEVTAVEMAATGIDWTFAPALSVVRDDRWGRTYEGFSEDPEIVAAYSAAIVEGVQGKFGSKDFMAPGRIVASAKHFLADGGTDQGRDQGDARISEDELIRIHNAGYPPAIDAGVLTVMASFSSWQGIKHHGHKQLLTDVLKGQMGFNGFIVGDWNAHDQVPGCTKFNCPTSLIAGLDMYMAADSWKQLYENTLAQVKDGTIPMARLDDAVRRILRVKVLAGLFEKPAPKDRPGLPGLETLGSPEHRAVGREAVRKSLVLLKNDKGTLPLSPKARVLVAGDGADNIGKQSGGWTISWQGTGNRNDEFPGATSILGGIRDAVADAGGSVEFDVAGQYKTKPDVAIVVFGEEPYAEFQGDVETLEYQPDQKQDLALLKKLKDQGIPVVAVFLSGRPMWVNPELNASDAFVAAWLPGTEGGGVADVLFTDKAGKVQHDFAGKLSYSWPRTAAQTTVNRGDADYNPLFAYGYGLTYKDKSKVGTLPEESGVPAEARQN

The series can be described thus: High throughput cellobiose assay: fold improvement in cellobiase activity of CelA variants over a control enzyme (Tables 2A-2D, 3, 5, 6, 7). It counts as biochemical. The conditions noted are these: 3.3 g/l cellobiose, 55° C. and pH 6.0.
For B1, the “Fold improvement over Control Variant No. 5 from Table 2A” value is “++ (++ = 1.1 to 6 fold improvement over control Variant No. 2)”. To B2 belongs “++ (++ = 1.1 to 6 fold improvement over control Variant No. 2)”. For B3, the “Fold improvement over Control Variant No. 5 from Table 2A” value was “++ (++ = 1.1 to 6 fold improvement over control Variant No. 2)”. To B4 belongs “+++ (+++ = 6 to 13 fold improvement over control Variant No. 2)”; to B5, “+++ (+++ = 6 to 13 fold improvement over control Variant No. 2)”; to B6, “++ (++ = 1.1 to 6 fold improvement over control Variant No. 2)”.

On to B7, for which the “Fold improvement over Control Variant No. 5 from Table 2A” value was “++ (++ = 1.1 to 6 fold improvement over control Variant No. 2)”. Regarding B8, the “Fold improvement over Control Variant No. 5 from Table 2A” value is listed as “++ (++ = 1.1 to 6 fold improvement over control Variant No. 2)”. To B9 belongs “++ (++ = 1.1 to 6 fold improvement over control Variant No. 2)”. To B10 belongs “+++ (+++ = 6 to 13 fold improvement over control Variant No. 2)”; to B11, “+++ (+++ = 6 to 13 fold improvement over control Variant No. 2)”; to B12, “++ (++ = 1.1 to 6 fold improvement over control Variant No. 2)”.

As for B13, the “Fold improvement over Control Variant No. 5 from Table 2A” value is “++ (++ = 1.1 to 6 fold improvement over control Variant No. 2)”. To B14 belongs “++ (++ = 1.1 to 6 fold improvement over control Variant No. 2)”. To B15 belongs “+++ (+++ = 6 to 13 fold improvement over control Variant No. 2)”; to B16, “++ (++ = 1.1 to 6 fold improvement over control Variant No. 2)”; to B17, “++ (++ = 1.1 to 6 fold improvement over control Variant No. 2)”. To B18 belongs “++ (++ = 1.1 to 6 fold improvement over control Variant No. 2)”. Take B19: the “Fold improvement over Control Variant No. 5 from Table 2A” value is given as “+++ (+++ = 6 to 13 fold improvement over control Variant No. 2)”. To B20 belongs “+++ (+++ = 6 to 13 fold improvement over control Variant No. 2)”; to B21, “+++ (+++ = 6 to 13 fold improvement over control Variant No. 2)”; to B22, “++ (++ = 1.1 to 6 fold improvement over control Variant No. 2)”. B23: the “Fold improvement over Control Variant No. 5 from Table 2A” value was “++ (++ = 1.1 to 6 fold improvement over control Variant No. 2)”. Take B24: the “Fold improvement over Control Variant No. 5 from Table 2A” value is “++ (++ = 1.1 to 6 fold improvement over control Variant No. 2)”.

On to B25, for which the “Fold improvement over Control Variant No. 5 from Table 2A” value is “++ (++ = 1.1 to 6 fold improvement over control Variant No. 2)”. In the case of B26, the “Fold improvement over Control Variant No. 5 from Table 2A” value is reported as “+++ (+++ = 6 to 13 fold improvement over control Variant No. 2)”.

With B27, the “Fold improvement over Control Variant No. 5 from Table 2A” value is listed as “++ (++ = 1.1 to 6 fold improvement over control Variant No. 2)”. To B28 belongs “++ (++ = 1.1 to 6 fold improvement over control Variant No. 2)”; to B29, “++ (++ = 1.1 to 6 fold improvement over control Variant No. 2)”. To B30 belongs “++ (++ = 1.1 to 6 fold improvement over control Variant No. 2)”; to B31, “++ (++ = 1.1 to 6 fold improvement over control Variant No. 2)”. Take B32: the “Fold improvement over Control Variant No. 5 from Table 2A” value is on record as “++ (++ = 1.1 to 6 fold improvement over control Variant No. 2)”.
